Experiment [1] addresses T1, B/MY04 N135R EHA2 (Influenza B virus B/Malaysia/2506/2004, UniProt P03461 374-538).
T1 chain: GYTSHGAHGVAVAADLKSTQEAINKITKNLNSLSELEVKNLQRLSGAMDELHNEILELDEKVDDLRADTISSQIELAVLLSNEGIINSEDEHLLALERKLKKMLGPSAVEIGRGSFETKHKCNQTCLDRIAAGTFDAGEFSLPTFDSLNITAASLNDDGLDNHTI
Nature of the experiment: ELISA, rIgG (FIG. 20A).

For experiment [2], the target named is T1, B/MY04 N135R EHA2. Nature of the experiment: ELISA, rIgG (FIG. 13).

B1: S1V2-72 (antibody, V domains shown)
VH: QVQLVQSGAELKKPGASVKVSCKASGYTFTGNYIHWMRQVPGQGLEWMGWINPRTGDTHHAQKFQGRVDMTRDTSINTAYLELTRLESDDTALYYCARCVFATSQFDPWGQGTLVTVSS
VL: QSALTQPASVSGSPGQSITISCTGTNSDIGSHNLVSWYQQHPGKAPKVMIYDDSKRPSGVSNRFSGSKSGSTASLTISGLQSEDEADYYCCSYAGSSNWVFGGGTKLTLL
For the molecule B1, the binding result with B/MY04 N135R EHA2 [1] was “no binding”.

B2: 351-52 (antibody, V domains shown)
VH: QVQLAQSGAEVRKPGASVKVSCKASGYTFTDYYIHWVRQAPGQGLEWMGWINPDSGRTNYAQRFQGRVSMTSDTSISTAYMDLSRLRSDDTAVYFCAREGAHNYQHFDHWGQGTLVTVSA
VL: EIVLTQSPDTLSLSPGESATLFCRASQSVRSSYLAWYQQTPGQAPRLLIYGASSRATGIPDRFSGSGSGTDFTLTISRLEPEDFAVYYCQQFGRSSWTFGQGTKVEIK
B2: the binding result in the experiment with B/MY04 N135R EHA2 [2] is “no binding”.

B3: M94 (antibody, V domains shown)
VH: QVQLVESGAEVKRPGASVKVACKASEYRFAASYIHWVRQAPGQGLEWMGWINLNSGDTKSSQKFQGWVTLTRDTSINTVYMEMTNLKFDDTAIYYCAKIILGGGGLDVWGQGTTVTVSS
VL: QSVLTQPRSVSGSLGQSVTISCSGTSTDVGSYEFVSWYQHHPGKAPKLIIYDVSKRPSGVPDRFSGSKSGNTASLAVSGLQSDDEADYYCSSYADTSNTWVFGGGTKLTVL
Turning to B3, the binding result in the experiment with B/MY04 N135R EHA2 [2] is given as “no binding”.

B4: C1_ID26079-156194 (antibody, V domains shown)
VH: QVQLVQSGAEVKKPGASVKVSCKASGYTFTGNYMHWVRQAPGQGLEWMGWINPDSGGTNYAQRFQGRVTMTRDTSISTAYMELSRLTSDDTAMYYCARVMLRSSGFDSWGQGTLVTVSS
VL: QSALIQPASVSGSPGQSITISCTGTSSDVGTYNLVSWYQQHPGKVPKLMIYEASERPSGVSNRFSGSKSGNTASLTISGLQAEDEADYYCCSYAGNSAWVFGGGTKLTVL
Turning to B4, the binding result with B/MY04 N135R EHA2 [2] was “no binding”.

The record behind these values is US20250084152A1 (DUKE UNIVERSITY, published 2025).
